Target: T1, SARS-CoV-2 full-length nucleocapsid protein (NP) (SARS-CoV-2, reference (Wuhan-Hu-1; Gene …, UniProt P0DTC9)
T1 construct: also called full-length NP
Test: ELISA
Conditions: both partners purified

B1: NbON10-NanoLuc fusion protein (VHH)
VHH: QVQLVQSGGGLVQPGGSLRLSCAASGLRLGYYTIAWFRQAPGKEREGISCISRSDGSTYYADSVKGRFTISTDNAENTVYLQMNSLKPEDTAVYYCAADFVPASHCAVANTRGYDYWGQGTQVTVSS
B1: binds.

From PMC10367427 (Frontiers in Immunology, 2023)
